The record followed here is patent US20150201588A1.

Experiment [1] addresses human CD20 (human) (UniProt P11836). In words: QIFIKIT-based quantitative flow cytometry on Cyno iPS-EPI-1504-1_Gluc/CD20 (exogenous CD20). Background: A flow cytometer gives signals particle by particle.
For experiment [2] the target is unchanged. Description: QIFIKIT-based quantitative flow cytometry on Cyno iPS-EPI-1504-3_Gluc/CD20 (exogenous CD20).
Experiment [3] shares this target. Description: QIFIKIT-based quantitative flow cytometry on Cyno iPS-EPI-1509-1_Gluc/CD20 (exogenous CD20).
For experiment [4] the target is unchanged. Description: QIFIKIT-based quantitative flow cytometry on Daudi cells (human Burkitt's lymphoma line, endogenous CD20).

Sequence of UniProt P11836 (P11836 whole entry): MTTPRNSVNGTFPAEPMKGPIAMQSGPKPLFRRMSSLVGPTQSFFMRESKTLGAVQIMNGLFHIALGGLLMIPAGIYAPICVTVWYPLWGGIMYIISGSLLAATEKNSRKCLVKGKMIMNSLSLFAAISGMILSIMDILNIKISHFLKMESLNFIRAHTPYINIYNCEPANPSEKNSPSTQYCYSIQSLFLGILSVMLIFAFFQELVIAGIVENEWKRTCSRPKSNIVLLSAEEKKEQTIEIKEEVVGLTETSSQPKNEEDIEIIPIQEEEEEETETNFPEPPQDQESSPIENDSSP

For anti-CD20-FITC (clone 2H7) (antibody), the CD20 Surface Expression (Copies/Cell) with human CD20 (human) [1] came out at 1.38e+06 Copies/Cell; with human CD20 (human) [2], 1.22e+06 Copies/Cell; with human CD20 (human) [3], 1.48e+06 Copies/Cell; with human CD20 (human) [4], 388000 Copies/Cell.
